Data on one substance can be found in article PMC3045311.

For experiment [1], the target named is Acrophialophora nainiana xylanases.
Experiment [2] addresses Aspergillus niger xylanases.
The target of experiment [3] is Acrophialophora nainiana xylanases. The source holds these as a separate data set.

In the case of “Coffea arabica Chitinase-like Xylanase Inhibitor Protein (natural protein)”, the Inhibition (%) of xylanase activity (oat spelt xylan, DNS reagent, Abs 540 nm; 60 μg xylanases, 5 μg CaclXIP, 12:1 w/w, 50°C, 30 min) in experiment [1] is 57%; in experiment [2], 19.5%. The Inhibition (%) of xylanase activity (oat spelt xylan, DNS reagent, Abs 540 nm; enzymes:inhibitor ratio 12:1 w/w) in experiment [3] worked out at 56%.
